# From patent publication US12643954B2, “Anti-CD36 antibodies and their use to treat cancer” (ONA Therapeutics, S.L., priority 2020, dated 2026)
# Where two headings read alike, the source gives them in different places.
# B1: ONA-0-v1: murine IgA anti-CD36 antibody; heavy chain SEQ ID NO: 5, light chain SEQ ID NO: 7 (antibody)
# heavy: QVQLKQSGADLVRPGASVKLSCKASGYTFTDYYINWVKQRPGQGLEWIARIYPGSGNTYYNEKFKGKATLTAEKSSSTAYMQLSSLTSEDSAVYFCARGIGGGFGMDYWGQGTSVTVSSESARNPTIYPLTLPPVLCSDPVIIGCLIHDYFPFGTMNVTWGKSGKDITTVNFPPALASGGRYTMSSQLTLPAVECPEGESVKCSVQHDSNPVQELDVNCSPTPPPPITIPSCQPSLSLQRPALEDLLLGSDASITCTLNGLRNPEGAAFTWEPSTGKDAVQKKAAQNSCGCYSVSSVLPGCAERWNSGASFKCTVTHPESGTLTGTIAKVTVNTFPPQVHLLPPPSEELALNELLSLTCLVRAFNPKEVLVRWLHGNEELSPESYLVFEPLKEPGEGATTYLVTSVLRVSAETWKQGDQYSCMVGHEALPMNFTQKTIDRLSGKPTNVSVSVIMSEGDGICY
# light: SIVMTQTPKFLLVSAGDRITITCKASQSVSDDVAWYQQKPGQSPKLLIYYASNRYTGVPDRFTGSGYGTDFTFTISTVQAEDLAVYFCQQDYSSPLTFGAGTKLEIKRADAAPTVSIFPPSSEQLTSGGASVVCFLNNFYPKDINVKWKIDGSERQNGVLNSWTDQDSKDSTYSMSSTLTLTKDEYERHNSYTCEATHKTSTSPIVKSFNRNEC
# modifications: ONA-0-v1 heavy chain; ONA-0-v1 light chain
# Assays:
# [1] = target: T1, cells overexpressing human CD36 (Homo sapiens, UniProt P16671); test: FACS binding to cells overexpressing human CD36
# T1 construct: expressed in transfected cells
# T1 sequence (P16671 whole entry): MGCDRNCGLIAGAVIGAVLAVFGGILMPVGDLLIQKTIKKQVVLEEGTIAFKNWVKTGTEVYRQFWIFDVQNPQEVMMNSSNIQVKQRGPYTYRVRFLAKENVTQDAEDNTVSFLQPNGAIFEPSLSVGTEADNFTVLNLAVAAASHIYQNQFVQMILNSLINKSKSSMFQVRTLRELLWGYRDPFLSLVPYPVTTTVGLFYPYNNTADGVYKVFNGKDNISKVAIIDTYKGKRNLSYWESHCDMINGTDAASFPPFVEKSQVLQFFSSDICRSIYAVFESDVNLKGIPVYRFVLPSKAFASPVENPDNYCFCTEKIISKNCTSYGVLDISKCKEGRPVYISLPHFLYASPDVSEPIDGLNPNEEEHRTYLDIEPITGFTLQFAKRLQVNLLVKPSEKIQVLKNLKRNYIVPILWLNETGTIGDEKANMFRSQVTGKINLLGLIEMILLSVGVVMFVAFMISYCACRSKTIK
# Experimental: For FACS analysis, cells were trypsinized, collected in a 15 mL tube and diluted in washing buffer (2% FBS in PBS). Cells were then centrifuged at 1500 rpm for 5 min at 4° C., supernatant was discarded, and cells were resuspended in fresh washing buffer. Anti-CD36 antibodies were either omitted (control wash buffer treatment) or serially diluted in washing buffer (dilution range up to 100 nM), and then added to the cells. Incubation was performed on ice for 1 hour. Cells were then centrifuged at 1500 rpm for 5 min at 4° C., supernatant was discarded, and cells were resuspended in fresh washing buffer. Finally, cells were incubated with a […] (BV421 Rat Anti-Mouse IgA, Becton Dickinson, reference 743293) diluted 1:100 in washing buffer, washed and analysed by FACS.
# CD36 [2] = target: T2, CD36 (Homo sapiens, UniProt P16671); test: ELISA binding to plate-coated human CD36; design: purchased Sino Biological 10752-H08H; details: recombinant human CD36 coated plates
# Experimental: (§1) To perform ELISA assays, 96-well ELISA plates were coated over night with human CD36 (Sino Biological, reference 10752-H08H) or mouse CD36 (Sino Biological, reference 50422-M08H) recombinant proteins at a concentration of 0.25 mg/ml. After two washes with PBS, plates were blocked with 4% skimmed milk in PBS for 1 hour at 37° C. Blocking solution was discarded and plates were washed five times with 200 μl/well PBS-Tween20 (0.5%). Primary antibodies were either omitted (control blocking solution treatment) or mixed in blocking solution at several dilutions ranging from 0.01 nM to 0.5 μM. The primary antibody solutions were added to the wells and incubated over night at 4° C. After 5 washes with 200 ul/well of PBS-Tween20 (0.5%), plates were incubated for 1 hour at room temperature with a goat anti-mouse HRP-conjugated antibody (Abeam, reference ab97235) diluted 1:2000 in blocking solution. Plates were then washed 5 times with 200 μl/well of PBS-Tween20 (0.5%), incubated with 100 μl/well TMB and detected after 10 minutes, 30 minutes, or 60 minutes with a spectrophotometer at a wave length of 630 nm.
# Target sequence in this assay (P16671 30-439 limits assumed): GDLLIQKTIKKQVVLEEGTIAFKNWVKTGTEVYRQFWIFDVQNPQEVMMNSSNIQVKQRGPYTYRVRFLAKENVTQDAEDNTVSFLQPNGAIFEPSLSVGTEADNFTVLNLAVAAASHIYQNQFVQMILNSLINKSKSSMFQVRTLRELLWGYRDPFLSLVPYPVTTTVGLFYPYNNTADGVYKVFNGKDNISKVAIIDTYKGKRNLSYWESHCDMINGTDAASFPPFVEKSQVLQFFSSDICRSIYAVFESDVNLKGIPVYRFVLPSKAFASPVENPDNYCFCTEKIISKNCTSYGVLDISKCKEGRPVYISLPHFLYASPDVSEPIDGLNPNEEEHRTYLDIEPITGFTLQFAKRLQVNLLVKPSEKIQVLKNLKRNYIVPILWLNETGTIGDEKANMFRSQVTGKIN
# OVCAR-3 cells = test: OVCAR-3 orthotopic mouse model of ovarian cancer (Example 7); assay type: in vivo
# Experimental: Studies of the effects of the ONA-0-v1 anti-CD36 antibody on ovarian cancer were performed in NSG mice (immuno-deficient). The studies included only female mice. All mice were inoculated with commercially available OVCAR-3 (ATCC) cancer cells. OVCAR-3 cells were derived from a human progressive adenocarcinoma of the ovary (i.e., from an ovarian cancer). Prior to inoculation, the OVCAR-3 cells were cultured in a humidified incubator at 37° C. with 5% CO2, and were grown in RPMI-1640 supplemented with 5 μg ml^−1 penicillin/streptomycin, 0.01 mg/ml bovine inulin and 20% FBS (GIBCO).
# For each mouse, a piece of an OVCAR-3 xenograft was implanted orthotopically. […] Mice implanted with OVCAR-3 also develop metastases in both the peritoneal wall and liver.
# Treatment of the implanted mice began 23 days after implantation with the OVCAR-3 tumor pieces. Inoculated mice were divided into one of two treatment groups: vehicle injection control (n=9) or ONA-0-v1 treatment (n=9). Antibody treatments were administered via intraperitoneal (i.p.) injection daily at a dose of 3 mg/kg, while control mice received an equal volume of vehicle on the same schedule. Mice were sacrificed at the end of the treatment period. Upon sacrifice, organs and tissues were collected for performance of immunohistochemistry analysis.
# mouse CD36 = target: T3, mouse CD36 (Mus musculus, UniProt Q08857); test: ELISA binding to plate-coated mouse CD36; details: recombinant mouse CD36 coated plates
# T3 construct: purchased Sino Biological 50422-M08H
# T3 sequence (Q08857 30-439 limits assumed): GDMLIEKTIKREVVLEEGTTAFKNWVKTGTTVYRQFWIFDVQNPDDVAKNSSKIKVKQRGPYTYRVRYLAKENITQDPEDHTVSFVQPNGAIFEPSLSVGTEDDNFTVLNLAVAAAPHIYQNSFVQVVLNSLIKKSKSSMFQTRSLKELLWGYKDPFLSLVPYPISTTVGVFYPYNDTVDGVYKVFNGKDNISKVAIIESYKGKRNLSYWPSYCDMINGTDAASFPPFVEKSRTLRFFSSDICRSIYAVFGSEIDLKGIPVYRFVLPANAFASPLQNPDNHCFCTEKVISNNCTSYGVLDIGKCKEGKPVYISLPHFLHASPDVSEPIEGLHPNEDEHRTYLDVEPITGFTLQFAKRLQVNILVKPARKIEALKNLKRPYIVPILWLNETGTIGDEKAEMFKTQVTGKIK
# Experimental: as §1
# CD36 [3] = target: T2, CD36; test: Surface plasmon resonance (Biacore T200) affinity for human CD36; assay type: binding; details: SPR
# Experimental: The affinity of ONA-0-v1, 1G04, and a commercial anti-CD36 antibody (JC63.1) for human CD36 was also measured by surface plasmon resonance (SPR) using a Biacore T200. 1G04 was analysed using a protein A capture surface, with a capture range of 100-150 RU and an antigen titration range of 3.3-333 nM. The mouse antibodies ONA-0-V1 and the commercial anti-CD36 antibody were analysed using an anti-mouse IgA capture surface, with a capture range of 160-180 RU and an antigen titration range of 3.3-333 nM. For each single analysis cycle a titration of five antigen concentrations were injected over the captured antibody and then the dissociation of the complex was measured. A double referencing method was employed in which data from the reference surfaces where no antibody was captured (fc 1 and 3 respectively) were subtracted from the antibody bound capture surface (fc 2 and 4). Blank injections of buffer were run for every antigen titration cycle and then subtracted from analyte injection cycles, to correct for small changes in the antibody capture surface density. All analysis was performed at 25° C., and the sample rack was kept at 6° C. during experimental runs. Each experiment was run at least three times with the mean binding constants generated from at least two independent assays reported. All analysis was performed in PBS-T running buffer at 40 μL/min.
# Target sequence in this assay (P16671 whole entry): as the sequence (P16671 whole entry) above
molecule,measurement,setting,value
B1,binding to cells overexpressing human CD36 (FACS),[1]; antibodies at 100 nM,bound equivalently
same,binding to cells overexpressing human CD36 (FACS),[1]; serial dilution up to 100 nM,specifically bound
same,binding to human CD36 in ELISA,CD36 [2],able to specifically bind
same,average primary tumor weight,OVCAR-3 cells; 3 mg/kg i.p. daily,1.058 g
same,decrease of primary tumor weight vs vehicle,OVCAR-3 cells; 3 mg/kg i.p. daily,43%
same,SR (Sirius red) positive area of primary tumors,OVCAR-3 cells; collagenous and fibrotic areas,22.5%
same,percent necrosis of primary tumors,"OVCAR-3 cells; histology, pathologist quantification",approximately 40.71%
same,animals with large metastasis (>5 mm) in the peritoneal wall,OVCAR-3 cells; macroscopic analysis,no large metastasis were detected
same,animals with no metastasis in the peritoneal wall,OVCAR-3 cells; macroscopic analysis,63%
same,animals with small metastasis (1-2 mm) in the peritoneal wall,OVCAR-3 cells; macroscopic analysis,38%
same,large liver metastasis,OVCAR-3 cells; macroscopic analysis,6%
same,mice without metastasis in the liver,OVCAR-3 cells; macroscopic analysis,50%
same,small liver metastasis,OVCAR-3 cells; macroscopic analysis,44%
same,binding to mouse CD36 in ELISA,mouse CD36,able to specifically bind
same,ka,"CD36 [3]; 1-to-1 model, 25° C.",632000 M⁻¹ s⁻¹
same,kd,"CD36 [3]; 1-to-1 model, 25° C.",0.00354 s⁻¹
same,ka1,CD36 [3]; 2-state model,108000 M⁻¹ s⁻¹
same,ka2,CD36 [3]; 2-state model,0.000558 s⁻¹
same,kd1,CD36 [3]; 2-state model,0.0023 s⁻¹
same,kd2,CD36 [3]; 2-state model,0.000393 s⁻¹
same,ka2,CD36 [3]; bivalent model,6.74E−05 1/RUs
same,kd1,CD36 [3]; bivalent model,0.00259 s⁻¹
same,kd2,CD36 [3]; bivalent model,0.000527 s⁻¹
same,ka1,"CD36 [3]; bivalent model, first ka1 column",33400 M⁻¹ s⁻¹
same,Kd,"CD36 [3]; bivalent model, read-out: KD1",77.3 nM
same,Kd,"CD36 [3]; bivalent model, read-out: KD2",986 nM
